Target: ERK2, P28482
Assay: fluorescence polarisation; competitive: complex of the MAPK with 50 nM Cf-RHDF at 60-80% complex formation titrated with increasing unlabeled peptide; 20 mM Tris pH 8.0, 100 mM NaCl, 0.05% Brij35, 2 mM TCEP; 384-well black plates; triplicates; constants are called Kd in Table 1 and Ki in the …

Sequence of ERK2, P28482 (P28482 whole entry): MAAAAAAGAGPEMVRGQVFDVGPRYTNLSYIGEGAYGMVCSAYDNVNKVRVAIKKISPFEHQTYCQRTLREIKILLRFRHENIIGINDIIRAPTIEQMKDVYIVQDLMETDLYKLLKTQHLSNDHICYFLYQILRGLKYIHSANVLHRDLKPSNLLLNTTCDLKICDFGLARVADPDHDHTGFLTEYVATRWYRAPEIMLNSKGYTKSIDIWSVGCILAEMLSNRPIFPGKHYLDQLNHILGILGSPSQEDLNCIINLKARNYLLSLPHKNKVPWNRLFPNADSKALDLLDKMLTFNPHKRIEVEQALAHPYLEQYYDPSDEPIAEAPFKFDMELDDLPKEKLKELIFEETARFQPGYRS

- Kd: 0.6 µM
B1: octaarginine conjugate of the native RHDF1 sequence (peptide 2) (peptide)
chain 1: SLQRKKPPWLKLDIPSC
chain 2: RRRRRRRR
modifications: not checked

From PMC8281026, “Peptide Based Inhibitors of Protein Binding to the Mitogen-Activated Protein Kinase Docking Groove” (Frontiers in Molecular Biosciences, 2021)
